Article PMC11798926 (2024)

B1: myc-tagged SynDIG4 (wild type) [rat] / HA-tagged μ2 AP subunit [not stated] (parent complex)
chain 1: MSSEKSGLPDSVPHTSPPPYNAPQPPAEPPIPPPQTAPSSHHHHHHHYHQSGTATLPRLGAGGLASAAAGAQRGPSSSATLPRPPHHAPPGPAAGAPPPGCATLPRMPPDPYLQETRFEGPLPPPPPAAAAPPPPAPAPTAQAPGFVVPTHAGAVGTLPLGGYVAPGYPLQLQPCTAYVPVYPVGTPYASGTPGGPGVTSTLPPPPQGPGLALLEPRRPPHDYMPIAVLTTICCFWPTGIIAIFKAVQVRTALARGDLVSAEIASREARNFSFISLAVGIAAMVLCTILTVVIIIAAQHHENYWDP
chain 2: MIGGLFIYNHKGEVLISRVYRDDIGRNAVDAFRVNVIHARQQVRSPVTNIARTSFFHVKRSNIWLAAVTKQNVNAAMVFEFLYKMCDVMAAYFGKISEENIKNNFVLIYELLDEILDFGYPQNSETGALKTFITQQGIKSQHQTKEEQSQITSQVTGQIGWRREGIKYRRNELFLDVLESVNLLMSPQGQVLSAHVSGRVVMKSYLSGMPECKFGMNDKIVIEKQGKGTADETSKSGKQSIAIDDCTFHQCVRLSKFDSERSISFIPPDGEFELMRYRTTKDIILPFRVIPLVREVGRTKLEVKVVIKSNFKPSLLAQKIEVRIPTPLNTSGVQVICMKGKAKYKASENAIVWKIKRMAGMKESQISAEIELLPTNDKKKWARPPISMNFEVPFAPSGLKVRYLKVFEPKLNYSDHDVIKWVRYIGRSGIYETRC

Variants of: B1
Experiment: co-immunoprecipitation (IP: HA, blot: myc), quantified; HEK293T cells; second bar chart of panel D (SD4 vs AMPA); parent: 100; read off a plot

Variant | percent of parent [%SD4]
chain 1 Y223A, chain 1 I226A | ~65
